Results reported in the supplement of paper PMC9732359.
± gives the uncertainty stated by the source.

Experiment: protein stability index of a GFP-peptide fusion (yeast GPS) (PSI 1-4); higher = more stable; sorted into four equal gates, so the index is relative within each strain
How it was run: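 Peptides tiling yeast proteins in 17-residue segments were fused downstream of GFP, with Cherry expressed from the same plasmid. As a pooled library in yeast, mid-log cultures grown in leucine-free medium were sorted into four equal gates by GFP/Cherry fluorescence ratio. Gate plasmids were PCR-amplified and Illumina-sequenced, and barcodes linked reads to strains. Each peptide received a protein stability index equal to the sum of each gate's read frequency times its gate number.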

Row | Sequence | protein stability index (doa10∆) | protein stability index (pdr5∆) | protein stability index (san1∆) | protein stability index (ubr1∆)
1 | DELDQEILNLSTQELQT [RPT5] | 3.21 ± 0.084 | 3.15 ± 0.09 | 3.14 ± 0.06 | 3.13 ± 0.078
2 | MITKRILEVGALASIQT [RPN12] | 1.63 ± 0.083 | – | 2.14 ± 0.22 | –
3 | ELNVKHVKQCQETCDKL [SMC2] | 3 ± 0.18 | 3.47 ± 0.2 | 3.09 ± 0.082 | 3.31 ± 0.051
4 | DMPSLRLIDLSGCENIT [GRR1] | 2.33 ± 0.083 | 2.7 ± 0.097 | 2.45 ± 0.094 | 2.65 ± 0.09
5 | VIRDSVTYTEHAKRKTV [HHF1] | 1.8 ± 0.081 | 1.4 ± 0.074 | 1.44 ± 0.12 | 2.03 ± 0.051
6 | LKEQSEQLKEQMEDMEE [SMC4] | 3.21 ± 0.079 | 2.92 ± 0.13 | 3.3 ± 0.046 | 3.14 ± 0.1
7 | SRKQKIAKTFTVDVSSP [RPL22A] | 2.81 ± 0.08 | 3.1 ± 0.077 | 2.95 ± 0.069 | 2.68 ± 0.05
8 | VKRRRDMLEHINLAMNE [SRB4] | 1.3 ± 0.096 | 1.33 ± 0.12 | 1.14 ± 0.19 | 1.2 ± 0.078
9 | ENEISSLLAMHKHNIMK [CDC53] | 2.92 ± 0.079 | 2.99 ± 0.059 | 3.02 ± 0.052 | 3.07 ± 0.039
10 | DPSLNLKLLAKSHVLLA [BRR2] | 2.02 ± 0.085 | 2.44 ± 0.1 | 1.79 ± 0.21 | 2.06 ± 0.15
11 | NEHSTSYTFRSEKGLLS [FAS1] | 2.6 ± 0.047 | 2.36 ± 0.054 | 2.7 ± 0.042 | 2.46 ± 0.033
12 | ISIFSTPGSVSLSAYNL [PRP8] | 2.61 ± 0.24 | 2.46 ± 0.09 | – | 1.81 ± 0.22
13 | ISVTRQVVLGGTSKYLI [SMC2] | 2.65 ± 0.074 | 2.96 ± 0.14 | 2.79 ± 0.068 | 2.73 ± 0.062
14 | LQGEVENIAQMKPKAEK [SMC4] | 3.02 ± 0.15 | 3.4 ± 0.12 | 3.19 ± 0.075 | 3.11 ± 0.075
15 | SSTDEESWFKALAGSEI [FAS1] | 3.32 ± 0.12 | 3.34 ± 0.14 | 3.11 ± 0.11 | 3.3 ± 0.081
16 | KFDIIIVDTSGRHHQEE [SRP54] | 3.01 ± 0.07 | 2.94 ± 0.046 | 2.71 ± 0.072 | 3.17 ± 0.06
17 | YNPKMIDDRDYVGNKRL [RET1] | – | – | – | 3.49 ± 0.26
18 | LHYDKDYNLRIYCYFLI [SSN8] | 1.28 ± 0.046 | 1.37 ± 0.045 | 1.37 ± 0.078 | 1.53 ± 0.046
19 | IACVLTVINEQQREAVR [RPL35A] | 1.73 ± 0.057 | 2.12 ± 0.068 | 2.18 ± 0.08 | 2.23 ± 0.066
20 | VDVKPKSPKERELEERA [RPC25] | – | 3.07 ± 0.17 | – | 3.31 ± 0.13
21 | VFLLLQAYFSRLELPVD [BRR2] | 1.59 ± 0.05 | 1.31 ± 0.043 | 1.26 ± 0.089 | 1.48 ± 0.041
22 | ESSFIEIDDTEAEVTAE [BRR2] | 3.01 ± 0.068 | 3.1 ± 0.088 | 2.98 ± 0.11 | 3.06 ± 0.052
23 | DPPIIIFINYKQTADWL [PRP28] | 1.43 ± 0.031 | 1.61 ± 0.048 | 1.9 ± 0.072 | 1.95 ± 0.042
24 | FLSKPSKALYPDYYMII [SNF2] | 2.31 ± 0.037 | 2.4 ± 0.045 | 2.19 ± 0.047 | 2.54 ± 0.035
25 | DSTIGNSKVDMKYDIFA [IRR1] | 2.82 ± 0.071 | 2.78 ± 0.082 | 2.71 ± 0.078 | 2.88 ± 0.06
26 | SQTQLENANAANNGAAF [MED2] | 2.71 ± 0.054 | 2.75 ± 0.051 | 2.85 ± 0.053 | 1.74 ± 0.032
27 | TPISNEQTEGEPKKKRG [SRP68] | 3.16 ± 0.12 | 3.27 ± 0.17 | 3.27 ± 0.11 | 3.27 ± 0.068

Row | Sequence | protein stability index (doa10∆) | protein stability index (pdr5∆) | protein stability index (san1∆) | protein stability index (ubr1∆)
28 | EKLKVNMEKEKDRIIDE [YIL149C/MLP2] | 3.37 ± 0.23 | 3.05 ± 0.2 | 3.39 ± 0.1 | 2.75 ± 0.14
29 | LQIHSRKMTTDDDINWQ [RPT5] | 3.09 ± 0.14 | 3.12 ± 0.093 | 2.93 ± 0.12 | 3.06 ± 0.063
30 | FSRFVDQFIRHVLRGVE [YCG1] | 3.37 ± 0.25 | 1.5 ± 0.1 | – | 1.72 ± 0.16
31 | NQKIPDNVIVINHKINN [SIR3] | 1.93 ± 0.06 | 2.03 ± 0.053 | 1.79 ± 0.066 | 2.14 ± 0.041
32 | SPMLSISNLTQEQVQDY [FAS1] | 2.97 ± 0.058 | 2.97 ± 0.047 | 2.98 ± 0.05 | 3.09 ± 0.044
33 | VDFDGLDIKRVGSENVE [SNF12] | 3.3 ± 0.19 | 3.32 ± 0.14 | 3.49 ± 0.24 | 3.35 ± 0.1
34 | KSLALLGYNFDGSAIED [SNF5] | 3.01 ± 0.084 | 2.99 ± 0.083 | 2.28 ± 0.072 | 2.86 ± 0.07
35 | DHIAIDWEDEEKYEDED [DSN1] | 2.52 ± 0.15 | 2.86 ± 0.12 | 2.55 ± 0.09 | 2.12 ± 0.08
36 | PLEKITDAYLDQYLWYE [PRP8] | 3.19 ± 0.13 | 3.36 ± 0.18 | 3.03 ± 0.18 | 3.18 ± 0.12
37 | KTVPFQVNQLQRILEVL [SSN3] | 2.27 ± 0.033 | 2.11 ± 0.031 | 1.63 ± 0.041 | 2.08 ± 0.03
38 | SYDRTLLIADSRRPEPK [RPS16A] | 2.25 ± 0.043 | 2.48 ± 0.068 | 2.03 ± 0.075 | 2.29 ± 0.058
39 | PMHSIMPNSSLQPFYSQ [DSN1] | 2.12 ± 0.072 | 2.65 ± 0.061 | 2.37 ± 0.083 | 2.49 ± 0.048
40 | RVNEMVQGMNDDIFIRY [ECM29] | 1.7 ± 0.095 | 1.89 ± 0.17 | 2.09 ± 0.19 | 2.39 ± 0.11
41 | FRFQGGIIVAVDSRATA [PRE2] | 1.45 ± 0.063 | 1.54 ± 0.072 | 1.3 ± 0.12 | 1.62 ± 0.078
42 | IRRYCDVVAHRQLAGAI [DIS3] | 1.91 ± 0.077 | 2.2 ± 0.065 | 1.99 ± 0.097 | 2.18 ± 0.1
43 | VSHHATTFTHCEIHPSM [RPB2] | 3.12 ± 0.076 | 3.22 ± 0.069 | 2.46 ± 0.12 | 2.96 ± 0.062
44 | FEHGRTPAEMSRPATTT [FAS2] | 2.72 ± 0.064 | 3.13 ± 0.081 | 2.41 ± 0.09 | 2.79 ± 0.1
45 | EAVELVIGLDSEHDKKR [YML103C/NUP188] | 2.74 ± 0.2 | 3.55 ± 0.15 | 3.16 ± 0.18 | 3.37 ± 0.047
46 | LAKTKENYDAKIELEKK [YIL149C/MLP2] | 3.22 ± 0.058 | 3.47 ± 0.075 | 3.05 ± 0.061 | 3.13 ± 0.053
47 | VDPLKSLEDKILRMGAF [RRI1] | 3.19 ± 0.12 | 3.04 ± 0.14 | 2.88 ± 0.12 | 2.94 ± 0.094
48 | ESWFKALAGSEINWRHA [FAS1] | 3.31 ± 0.11 | 2.54 ± 0.081 | 2.63 ± 0.083 | 2.59 ± 0.057
49 | NAVLGLGDMAVCFNNLV [YCS4] | 2.71 ± 0.097 | 3.32 ± 0.11 | 2.61 ± 0.098 | 2.68 ± 0.093
50 | KVAPAPFGAKSTKSNKT [RPL8A] | 2.68 ± 0.1 | 2.84 ± 0.076 | 2.74 ± 0.071 | 2.94 ± 0.068
51 | NSPSKGNSERPSAVAGF [YIL149C/MLP2] | 3.2 ± 0.087 | 3.45 ± 0.1 | 3.1 ± 0.089 | 3.16 ± 0.11
52 | LTDPMTVMFFYHNKHMM [DIB1] | 2.19 ± 0.075 | 2.04 ± 0.061 | 2.33 ± 0.094 | 1.76 ± 0.041
53 | RSEFIESLLNWINRSDG [YJR042W/NUP85] | – | 3.11 ± 0.15 | 2.77 ± 0.24 | 3.22 ± 0.22
54 | NTQDLLLLLSLFKKITN [YML103C/NUP188] | 1.26 ± 0.038 | 1.3 ± 0.033 | 1.58 ± 0.068 | 1.55 ± 0.036
